Legend:
[1] = Determination of the enzyme activities for ethyl-2-oxo-4-phenylbutyrate with enzyme lysate (NADH absorption decrease at 340 nm); type: biochemical; details: enzyme lysate of recombinant RB791 cells, per wet cell mass; room temperature, pH 7.0, 0.3 mM NADH, 1 mM ethyl-2-oxo-4-phenylbutyrate; mean of at least three measurements
Procedure: Enzyme lysates (10% [w/v] and 20% [w/v] wet cell mass) were used to determine the enzyme activities. Enzyme lysates were prepared in TEA buffer (100 mM triethanolamine pH 7.0, 2 mM MgCl2). 0.1 g or 0.2 g wet cell mass was completely resuspended in 1 ml TEA buffer. The cells were disrupted in 2 ml reaction vessels by adding a 0.5 ml corresponding volume of glass beads at 24 Hz for 10 minutes in a vibrating mill (Retsch, MM200). The cell lysate was then sedimented in a tabletop centrifuge at 7500×g for 60 seconds. The cell-free supernatant, the enzyme lysate, was used immediately to determine the activity.
The activity was measured at room temperature in a reaction volume of 1 ml in a semi-micro cuvette (layer thickness 1 cm). The reaction mixture was composed as follows: 100 mM triethanolamine pH 7.0, 2 mM MgCl2, 0.3 mM NADH and 1 mM ethyl-2-oxo-4-phenylbutyrate (CAS No. 64920 29 2)
The reaction was started by adding 15 μL or 25 μL of enzyme lysate diluted in TEA buffer. The individual dilution was chosen for each enzyme lysate in such a way that a linear decrease in absorption at 340 nm could be recorded over a period of 30 seconds (UV-Vis spectrophotometer, Shimadzu). […] Each measurement was carried out at least three times and the mean values were determined. […] (SEQ ID NO: 1) or Weizmannia coagulans (SEQ ID NO: 3), respectively, enzyme activities of 1825 U/g and 71 U/g were determined.

[2] = Characterization of oxidoreductases with regard to reduction of [6]-gingerol to the (3R,5S)-alcohol (HPLC); type: biochemical; details: recombinant E. coli enzyme suspension, NADH, 2-propanol, 25° C., 24 hours; for Ratio: 3S,5S/3R,5S (%) - 3R,5S share / Ratio: 3S,5S/3R,5S (%) - 3S,5S share: 2 mg [6]-gingerol; for Conversion (%): conversion of [6]-gingerol
Procedure: The oxidoreductases with the polypeptide sequences SEQ ID NO: 1 and SEQ ID NO: 3 were examined by the following method to determine the conversion rate and diasterioselectivity by reducing [6]-gingerol to the corresponding (3R, 5S)-alcohol:
Recombinant Escherichia coli cells which carry the genes of the oxidoreductases SEQ ID NO: 1 or SEQ ID NO: 3 were cultivated as described in Example 2. To produce an enzyme suspension, 1 g wet cells were completely resuspended with TEA buffer (100 mM triethanolamine pH 7.0, 2 mM MgCl2) in a total volume of 5 mL and then mixed until homogeneous by adding 5 mL glycerol solution (80% [v/v] in TEA buffer). In the reaction setup, 2 mg [6]-gingerol per […] of this enzyme suspension were added to 160 μL KPP buffer (100 mM potassium phosphate buffer, pH 7.5, 1 mM MgCl2), together with 0.0035 g NADH and 20 μL 2-propanol. After incubating the samples at 25° C. and 1200 rpm for 24 hours, the reaction solutions were extracted with 1 ml each of […] and centrifuged. 250 μL of the extract were removed and dried. Then 1 ml acetonitrile was added and analyzed by means of HPLC. A Luna PFP (2) column (150×3 mm) from Phenomenex (Germany) was used for detecting the conversion of [6]-gingerol and the diastereomers formed.

Molecule | enzyme activity [1] | Ratio: 3S,5S/3R,5S (%) - 3R,5S share [2] | Ratio: 3S,5S/3R,5S (%) - 3S,5S share [2] | Conversion (%) [2]
SEQ ID NO: 1: KRED polypeptide isolated from Bacillus sp, 248 amino acids, expressed recombinantly in Escherichia coli (protein, listed as Bacillus sp.) MSGRVAVITGAGSGIGRETCLTFARKGEKVVVADINEEKGLETTELVKAEGGEAVFVNTDVSKFEEVEALVDQAVETYGSIDIMFNNAGIGKMGHVLSLNIEDYLHVIDVNQHGVAYGIIAAGRKMRDLDIKGVIINSASVFGYLANFGTFPYQASKGAVRMMTQNAALELSQYGIRVVGIAPGSVDTSIIQAYKDAGMTQKMKEQQMRKELIRPEAIANAVYLLTLEEADVINGSVVMLDDGYASFK | 1825 U/g | 95.5% | 4.5% | >71%
SEQ ID NO: 3: KRED polypeptide isolated from Weizmannia coagulans, 248 amino acids, expressed recombinantly in Escherichia coli (protein, Weizmannia coagulans, KRED polypeptide isolated from Weizmannia coagulans, 248 amino acids, expressed recombinantly in Escherichia coli) MSGRVAVITGAGSGIGWETSLTFARKGDSVVVADIDEEKGLETVELIKQEGGDAVFAKTDVSKFEEVESLVNQAVEIYGTIDVMFNNAGIGTLGHILSKKIEDYLRVIDVNQHGVAYGIIAAGRKMRELDVKGVIINTASVFGYLANFGTFPYQAAKGAVRMMTQNAALELAQYGIRVVGIAPGCVDTPIIQAYKDAGMTQKMTEQQMRKKLIRPEAIANAVYLLTLEEADAINGSVVMLDDGYASFK | 71 U/g | 98.6% | 1.4% | >84%

From patent US20250275560A1, “PROCESS OF MAKING GINGEROL COMPOUNDS AND THEIR USE AS FLAVOR MODIFIERS” (Firmenich SA, priority 2021, published 2025)
